Results taken from patent US20070203054A1 (YISSUM RESEARCH DEVELOPMENT COMPANY OF THE HEBREW …, published 2007).

Columns and labels:
[1] = target: hemagglutinin-neuraminidase of Sendai virus (SV) on infected cells (Sendai virus)
[2] = target: HA of influenza A/Beijing (A/Beijing/262/95-like (H1N1)) on infected cells (influenza A virus A/Beijing/262/95-like (H1N1))
[3] = target: HA of influenza virus New Caledonia (H1N1) on infected cells (influenza A virus New Caledonia (H1N1))
[4] = target: HA of influenza virus Yamanashi (B strain) on infected cells (influenza B virus Yamanashi)
[5] = target: HA of influenza A/Sydney (A/Sydney/5/97-like (H3N2)) on infected cells (influenza A virus A/Sydney/5/97-like (H3N2))
[6] = target: HA of influenza A/Moscow (A/Moscow/10/99-like (H3N2)) on infected cells (influenza A virus A/Moscow/10/99-like (H3N2))

Molecule: NKp46D2-Ig fusion protein produced in COS cells (membrane proximal domain of NKp46 fused to Fc of human IgG1) (from UniProt O76036 121-254) (Fc fusion)
- MFI [1]: 95
- MFI [2]: 77
- MFI [3]: 420
- MFI [4]: 51
- MFI [5]: 100
- MFI [6]: 50

Molecule: NKp30-Ig fusion protein (from UniProt O14931 19-135) (Fc fusion)
- MFI [2]: 4
- MFI [3]: 10
- MFI [5]: 8
- MFI [6]: 8

Molecule: NKp44-Ig fusion protein (from UniProt O95944 22-190) (Fc fusion)
- MFI [1]: 350
- MFI [2]: 128
- MFI [3]: 518
- MFI [4]: 117
- MFI [5]: 120
- MFI [6]: 24

Molecule: NKp46-Ig fusion protein (from UniProt O76036 22-254) (Fc fusion)
- MFI [2]: 44
- MFI [3]: 315
- MFI [5]: 58
- MFI [6]: 20

Molecule: NKp46D1-Ig fusion protein (membrane distal domain of NKp46 fused to Fc of human IgG1) (from UniProt O76036 22-120) (Fc fusion)
- MFI [1]: 8
- MFI [2]: 7
- MFI [3]: 5
- MFI [4]: 8
- MFI [5]: 10
- MFI [6]: 8

B1: CD99-Ig fusion protein (Fc fusion)
chain: DGGFDLSDALPDNENKKPTAIPKKPSAGDDFDLGDAVVDGENDDPRPPNPPKPMPNPNPNHPSSSGSFSDADLADGVSGGEGKGGSDGGGSHRKEGEEAD
- MFI [1]: 0.5
- MFI [2]: 0
- MFI [3]: 0
- MFI [4]: 0
- MFI [5]: 1
- MFI [6]: 0
